Laboratory results reported in PMC13410764.

Target: Tr1 protein of Anaplasma phagocytophilum (recombinant, tagless) (Anaplasma phagocytophilum)
Test: SEC; gel filtration on a HiPrep Sephadex 75 16/600 column with Buffer B; apparent molecular weights from a standard curve of elution volumes

Tr1 protein of Anaplasma phagocytophilum (recombinant, tagless) (natural protein)
stoichiometry N: 4
